Test results as given in patent US20130005646A1 (Novo Nordisk, published 2013).
Each block holds one binder with its values, some of them ahead of it. Starred links: 1 amine or outer side, 2 acyl side, 3 side chain; linkers in the order of their positions; H or OH if unused. Positions of bridges follow the written chain, without caps; N, C: chain ends. *: point of attachment. C20 diacid = O=C(O)CCCCCCCCCCCCCCCCCCC(=O)*; 19‑carboxyheptadecanoyl = not defined here; γGlu = O=C(O)[C@H](CCC(=O)[*:2])N[*:1]; AEEA = NCCOCCOCC(=O)O

Legend:
[1] = target: T1, human amylin 3(a) receptor (human calcitonin receptor + RAMP-3) (human, UniProt P30988 25-474; O60896 24-148); test: cell-based or functional assay
T1 sequence (looked up) 1: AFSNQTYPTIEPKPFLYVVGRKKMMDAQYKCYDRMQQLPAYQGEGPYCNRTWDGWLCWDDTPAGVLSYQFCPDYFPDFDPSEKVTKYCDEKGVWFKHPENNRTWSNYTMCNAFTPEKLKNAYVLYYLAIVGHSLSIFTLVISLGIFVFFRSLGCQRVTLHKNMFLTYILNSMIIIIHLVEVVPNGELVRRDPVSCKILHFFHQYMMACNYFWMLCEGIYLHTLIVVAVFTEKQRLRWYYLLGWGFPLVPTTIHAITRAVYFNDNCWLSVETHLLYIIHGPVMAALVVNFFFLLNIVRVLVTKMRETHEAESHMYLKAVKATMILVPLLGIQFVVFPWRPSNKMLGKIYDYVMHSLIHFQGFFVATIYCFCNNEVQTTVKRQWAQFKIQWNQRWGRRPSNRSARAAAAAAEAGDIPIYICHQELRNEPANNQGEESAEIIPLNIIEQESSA
T1 sequence (looked up) 2: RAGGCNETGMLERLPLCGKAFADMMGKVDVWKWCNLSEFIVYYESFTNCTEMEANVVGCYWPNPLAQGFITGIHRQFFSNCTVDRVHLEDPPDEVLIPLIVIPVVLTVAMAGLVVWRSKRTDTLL

[2] = target: T2, human calcitonin (a) receptor (human, UniProt P30988 25-474); test: cell-based or functional assay
T2 sequence (looked up): T1 sequence (looked up) 1

Amylin receptor human EC50 [1]: 0.134 nM | CTa receptor human EC50 [2]: 0.13 nM
B1: N-alpha-[(S)-4-Carboxy-4-(19-carboxynonadecanoylamino)butyryl]-[Glu14,His17,Lys35]-pramlintide (peptide)
peptide: {C20 diacid-γGlu}-KCNTATCATQRLAEFLHHSSNNFGPILPPTNVGSKTY-NH2
modifications: disulfide 2-7; not fully specified; printed as N-alpha-[(S)-4-Carboxy-4-(19-carboxynonadecanoylamino)butyryl]-[Glu14,His17,Lys35]-pramlintide

Amylin receptor human EC50 [1]: 0.382 nM | CTa receptor human EC50 [2]: 0.113 nM
B2: N-alpha-[(S)-4-Carboxy-4-(19-carboxynonadecanoylamino)butyryl]-[Glu14,His17,His36]-pramlintide (peptide)
peptide: {C20 diacid-γGlu}-KCNTATCATQRLAEFLHHSSNNFGPILPPTNVGSNHY-NH2
modifications: disulfide 2-7; not fully specified; printed as N-alpha-[(S)-4-Carboxy-4-(19-carboxynonadecanoylamino)butyryl]-[Glu14,His17,His36]-pramlintide

Amylin receptor human EC50 [1]: 0.434 nM | CTa receptor human EC50 [2]: 0.277 nM
B3: N-alpha-[2-(2-{2-[2-(2-{2-[(S)-4-Carboxy-4-(19-carboxyheptadecanoylamino)butyrylamino]ethoxy}ethoxy)acetylamino]ethoxy}ethoxy)acetyl]-[Glu14,His17,Ser21,His35]- … (peptide)
peptide: {19‑carboxyheptadecanoyl-γGlu-AEEA-AEEA}-KCNTATCATQRLAEFLHHSSSNFGPILPPTNVGSHTY-NH2
modifications: disulfide 2-7; reading uncertain; also: printed as N-alpha-[2-(2-{2-[2-(2-{2-[(S)-4-Carboxy-4-(19-carboxyheptadecanoylamino)butyrylamino]ethoxy}ethoxy)acetylamino]ethoxy}ethoxy)acetyl]-[Glu14,His17,Ser21,His35]-pramlintide

Amylin receptor human EC50 [1]: 0.156 nM | CTa receptor human EC50 [2]: 0.169 nM
B4: N-alpha-[(S)-4-Carboxy-4-(19-carboxynonadecanoylamino)butyryl]-[Glu14,His17,Gln21,His35)-pramlintide (peptide)
peptide: {C20 diacid-γGlu}-KCNTATCATQRLAEFLHHSSQNFGPILPPTNVGSHTY-NH2
modifications: disulfide 2-7
SMILES: CC[C@H](C)[C@H](NC(=O)[C@@H]1CCCN1C(=O)CNC(=O)[C@H](Cc1ccccc1)NC(=O)[C@H](CC(N)=O)NC(=O)[C@H](CCC(N)=O)NC(=O)[C@H](CO)NC(=O)[C@H](CO)NC(=O)[C@H](Cc1c[nH]cn1)NC(=O)[C@H](Cc1c[nH]cn1)NC(=O)[C@H](CC(C)C)NC(=O)[C@H](Cc1ccccc1)NC(=O)[C@H](CCC(=O)O)NC(=O)[C@H](C)NC(=O)[C@H](CC(C)C)NC(=O)[C@H](CCCNC(=N)N)NC(=O)[C@H](CCC(N)=O)NC(=O)[C@@H](NC(=O)[C@H](C)NC(=O)[C@@H]1CSSC[C@H](NC(=O)[C@H](CCCCN)NC(=O)CC[C@H](NC(=O)CCCCCCCCCCCCCCCCCCC(=O)O)C(=O)O)C(=O)N[C@@H](CC(N)=O)C(=O)N[C@@H]([C@@H](C)O)C(=O)N[C@@H](C)C(=O)N[C@@H]([C@@H](C)O)C(=O)N1)[C@@H](C)O)C(=O)N[C@@H](CC(C)C)C(=O)N1CCC[C@H]1C(=O)N1CCC[C@H]1C(=O)N[C@H](C(=O)N[C@@H](CC(N)=O)C(=O)N[C@H](C(=O)NCC(=O)N[C@@H](CO)C(=O)N[C@@H](Cc1c[nH]cn1)C(=O)N[C@H](C(=O)N[C@@H](Cc1ccc(O)cc1)C(N)=O)[C@@H](C)O)C(C)C)[C@@H](C)O

Amylin receptor human EC50 [1]: 0.129 nM | CTa receptor human EC50 [2]: 0.115 nM
B5: N-alpha-[(S)-4-Carboxy-4-(19-carboxynonadecanoylamino)butyryl]-[Glu14,His17,His34]-pramlintide (peptide)
peptide: {C20 diacid-γGlu}-KCNTATCATQRLAEFLHHSSNNFGPILPPTNVGHNTY-NH2
modifications: disulfide 2-7
SMILES: CC[C@H](C)[C@H](NC(=O)[C@@H]1CCCN1C(=O)CNC(=O)[C@H](Cc1ccccc1)NC(=O)[C@H](CC(N)=O)NC(=O)[C@H](CC(N)=O)NC(=O)[C@H](CO)NC(=O)[C@H](CO)NC(=O)[C@H](Cc1c[nH]cn1)NC(=O)[C@H](Cc1c[nH]cn1)NC(=O)[C@H](CC(C)C)NC(=O)[C@H](Cc1ccccc1)NC(=O)[C@H](CCC(=O)O)NC(=O)[C@H](C)NC(=O)[C@H](CC(C)C)NC(=O)[C@H](CCCNC(=N)N)NC(=O)[C@H](CCC(N)=O)NC(=O)[C@@H](NC(=O)[C@H](C)NC(=O)[C@@H]1CSSC[C@H](NC(=O)[C@H](CCCCN)NC(=O)CC[C@H](NC(=O)CCCCCCCCCCCCCCCCCCC(=O)O)C(=O)O)C(=O)N[C@@H](CC(N)=O)C(=O)N[C@@H]([C@@H](C)O)C(=O)N[C@@H](C)C(=O)N[C@@H]([C@@H](C)O)C(=O)N1)[C@@H](C)O)C(=O)N[C@@H](CC(C)C)C(=O)N1CCC[C@H]1C(=O)N1CCC[C@H]1C(=O)N[C@H](C(=O)N[C@@H](CC(N)=O)C(=O)N[C@H](C(=O)NCC(=O)N[C@@H](Cc1c[nH]cn1)C(=O)N[C@@H](CC(N)=O)C(=O)N[C@H](C(=O)N[C@@H](Cc1ccc(O)cc1)C(N)=O)[C@@H](C)O)C(C)C)[C@@H](C)O

Amylin receptor human EC50 [1]: 0.487 nM | CTa receptor human EC50 [2]: 0.124 nM
B6: N-alpha-[(S)-4-Carboxy-4-(19-carboxynonadecanoylamino)butyryl]-[Glu14,His17,His32]-pramlintide (peptide)
peptide: {C20 diacid-γGlu}-KCNTATCATQRLAEFLHHSSNNFGPILPPTNHGSNTY-NH2
modifications: disulfide 2-7
SMILES: CC[C@H](C)[C@H](NC(=O)[C@@H]1CCCN1C(=O)CNC(=O)[C@H](Cc1ccccc1)NC(=O)[C@H](CC(N)=O)NC(=O)[C@H](CC(N)=O)NC(=O)[C@H](CO)NC(=O)[C@H](CO)NC(=O)[C@H](Cc1c[nH]cn1)NC(=O)[C@H](Cc1c[nH]cn1)NC(=O)[C@H](CC(C)C)NC(=O)[C@H](Cc1ccccc1)NC(=O)[C@H](CCC(=O)O)NC(=O)[C@H](C)NC(=O)[C@H](CC(C)C)NC(=O)[C@H](CCCNC(=N)N)NC(=O)[C@H](CCC(N)=O)NC(=O)[C@@H](NC(=O)[C@H](C)NC(=O)[C@@H]1CSSC[C@H](NC(=O)[C@H](CCCCN)NC(=O)CC[C@H](NC(=O)CCCCCCCCCCCCCCCCCCC(=O)O)C(=O)O)C(=O)N[C@@H](CC(N)=O)C(=O)N[C@@H]([C@@H](C)O)C(=O)N[C@@H](C)C(=O)N[C@@H]([C@@H](C)O)C(=O)N1)[C@@H](C)O)C(=O)N[C@@H](CC(C)C)C(=O)N1CCC[C@H]1C(=O)N1CCC[C@H]1C(=O)N[C@H](C(=O)N[C@@H](CC(N)=O)C(=O)N[C@@H](Cc1c[nH]cn1)C(=O)NCC(=O)N[C@@H](CO)C(=O)N[C@@H](CC(N)=O)C(=O)N[C@H](C(=O)N[C@@H](Cc1ccc(O)cc1)C(N)=O)[C@@H](C)O)[C@@H](C)O

Amylin receptor human EC50 [1]: 0.938 nM | CTa receptor human EC50 [2]: 1.08 nM
B7: N-alpha-[2-(2-{2-[2-(2-{2-[(S)-4-Carboxy-4-(19-carboxyheptadecanoylamino)butyrylamino]ethoxy}ethoxy)acetylamino]ethoxy}ethoxy)acetyl]-[His1,Glu14,His17,Ser21,Hi … (peptide)
peptide: {19‑carboxyheptadecanoyl-γGlu-AEEA-AEEA}-HCNTATCATQRLAEFLHHSSSNFGPILPPTNVGSHTY-NH2
modifications: disulfide 2-7; reading uncertain; also: printed as N-alpha-[2-(2-{2-[2-(2-{2-[(S)-4-Carboxy-4-(19-carboxyheptadecanoylamino)butyrylamino]ethoxy}ethoxy)acetylamino]ethoxy}ethoxy)acetyl]-[His1,Glu14,His17,Ser21,His35]-pramlintide

Amylin receptor human EC50 [1]: 0.098 nM | CTa receptor human EC50 [2]: 0.104 nM
B8: N-alpha-[(S)-4-Carboxy-4-(19-carboxynonadecanoylamino)butyryl]-[Glu14,His17,Arg35]-pramlintide (peptide)
peptide: {C20 diacid-γGlu}-KCNTATCATQRLAEFLHHSSNNFGPILPPTNVGSRTY-NH2
modifications: disulfide 2-7
SMILES: CC[C@H](C)[C@H](NC(=O)[C@@H]1CCCN1C(=O)CNC(=O)[C@H](Cc1ccccc1)NC(=O)[C@H](CC(N)=O)NC(=O)[C@H](CC(N)=O)NC(=O)[C@H](CO)NC(=O)[C@H](CO)NC(=O)[C@H](Cc1c[nH]cn1)NC(=O)[C@H](Cc1c[nH]cn1)NC(=O)[C@H](CC(C)C)NC(=O)[C@H](Cc1ccccc1)NC(=O)[C@H](CCC(=O)O)NC(=O)[C@H](C)NC(=O)[C@H](CC(C)C)NC(=O)[C@H](CCCNC(=N)N)NC(=O)[C@H](CCC(N)=O)NC(=O)[C@@H](NC(=O)[C@H](C)NC(=O)[C@@H]1CSSC[C@H](NC(=O)[C@H](CCCCN)NC(=O)CC[C@H](NC(=O)CCCCCCCCCCCCCCCCCCC(=O)O)C(=O)O)C(=O)N[C@@H](CC(N)=O)C(=O)N[C@@H]([C@@H](C)O)C(=O)N[C@@H](C)C(=O)N[C@@H]([C@@H](C)O)C(=O)N1)[C@@H](C)O)C(=O)N[C@@H](CC(C)C)C(=O)N1CCC[C@H]1C(=O)N1CCC[C@H]1C(=O)N[C@H](C(=O)N[C@@H](CC(N)=O)C(=O)N[C@H](C(=O)NCC(=O)N[C@@H](CO)C(=O)N[C@@H](CCCNC(=N)N)C(=O)N[C@H](C(=O)N[C@@H](Cc1ccc(O)cc1)C(N)=O)[C@@H](C)O)C(C)C)[C@@H](C)O

Amylin receptor human EC50 [1]: 0.063 nM | CTa receptor human EC50 [2]: 0.061 nM
B9: N-alpha-[(S)-4-Carboxy-4-(19-carboxynonadecanoylamino)butyryl]-Glu-Arg-[Glu1,Pro37]-pramlintide (peptide)
peptide: {C20 diacid-γGlu}-ERECNTATCATQRLANFLVHSSNNFGPILPPTNVGSNTP-NH2
modifications: disulfide 4-9
SMILES: CC[C@H](C)[C@H](NC(=O)[C@@H]1CCCN1C(=O)CNC(=O)[C@H](Cc1ccccc1)NC(=O)[C@H](CC(N)=O)NC(=O)[C@H](CC(N)=O)NC(=O)[C@H](CO)NC(=O)[C@H](CO)NC(=O)[C@H](Cc1c[nH]cn1)NC(=O)[C@@H](NC(=O)[C@H](CC(C)C)NC(=O)[C@H](Cc1ccccc1)NC(=O)[C@H](CC(N)=O)NC(=O)[C@H](C)NC(=O)[C@H](CC(C)C)NC(=O)[C@H](CCCNC(=N)N)NC(=O)[C@H](CCC(N)=O)NC(=O)[C@@H](NC(=O)[C@H](C)NC(=O)[C@@H]1CSSC[C@H](NC(=O)[C@H](CCC(=O)O)NC(=O)[C@H](CCCNC(=N)N)NC(=O)[C@H](CCC(=O)O)NC(=O)CC[C@H](NC(=O)CCCCCCCCCCCCCCCCCCC(=O)O)C(=O)O)C(=O)N[C@@H](CC(N)=O)C(=O)N[C@@H]([C@@H](C)O)C(=O)N[C@@H](C)C(=O)N[C@@H]([C@@H](C)O)C(=O)N1)[C@@H](C)O)C(C)C)C(=O)N[C@@H](CC(C)C)C(=O)N1CCC[C@H]1C(=O)N1CCC[C@H]1C(=O)N[C@H](C(=O)N[C@@H](CC(N)=O)C(=O)N[C@H](C(=O)NCC(=O)N[C@@H](CO)C(=O)N[C@@H](CC(N)=O)C(=O)N[C@H](C(=O)N1CCC[C@H]1C(N)=O)[C@@H](C)O)C(C)C)[C@@H](C)O
